What all share (test): yeast two-hybrid (LexA-KMD bait, B42-ARR prey, X-gal)
The target of one assay is T1, ARR12 (Arabidopsis, UniProt P62598 1-596).
T1 construct: YFP^N or YFP^C fusion of the full-length cDNA in BiFC; also called AtARR12; type-B response regulator AtARR12
T1 sequence (looked up): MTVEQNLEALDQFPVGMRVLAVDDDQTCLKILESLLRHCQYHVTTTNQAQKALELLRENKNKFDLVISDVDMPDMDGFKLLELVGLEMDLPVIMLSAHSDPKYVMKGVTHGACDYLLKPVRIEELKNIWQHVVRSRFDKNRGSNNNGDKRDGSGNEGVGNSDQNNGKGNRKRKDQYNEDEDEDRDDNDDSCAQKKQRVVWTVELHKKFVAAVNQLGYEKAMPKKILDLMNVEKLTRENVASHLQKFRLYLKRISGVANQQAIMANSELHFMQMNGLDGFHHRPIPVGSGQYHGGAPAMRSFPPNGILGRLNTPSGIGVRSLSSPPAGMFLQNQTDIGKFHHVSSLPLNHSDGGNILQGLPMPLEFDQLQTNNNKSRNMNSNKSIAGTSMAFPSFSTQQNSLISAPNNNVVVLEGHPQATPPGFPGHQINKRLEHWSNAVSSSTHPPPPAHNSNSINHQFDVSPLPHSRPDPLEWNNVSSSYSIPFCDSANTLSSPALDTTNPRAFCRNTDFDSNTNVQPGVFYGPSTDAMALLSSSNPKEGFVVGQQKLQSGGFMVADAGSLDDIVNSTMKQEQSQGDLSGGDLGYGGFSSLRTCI
The text has this: (§1) The DUPLEX-A™ system (OriGene Technologies) was used for yeast two-hybrid analysis of interactions. KMD cDNAs were cloned into the pGilda bait vector, which produces an in-frame fusion with the LexA DNA-binding domain. Type-B ARR coding sequences were cloned into the pJG4-5 prey vector, which produces a B42 activation domain. The yeast strain EGY48 (MATa, trp1, his3, ura3, leu2::6 LexAop-LEU2) that contains the lacZ reporter plasmid pSH18-34 was transformed with the appropriate “bait” and “prey” plasmids. Interactions were tested on 5-bromo-4-chloro-3-indolyl-p-D-galactopyranoside (X-gal) medium (Ryu, et al. (2005) Cell 120(3): 395-406).
(§2) The KMD proteins also interacted with ARR20 (type-B ARR subfamily-3), but not with ARR19 (subfamily-2) and ARR21 (subfamily-3). […] All four KMD proteins interacted with both ARR1 and ARR12 in a BiFC assay. Strong fluorescence was detected in the nuclei of cells, consistent with the subcellular localization of the type-B ARRs (Hwang & Sheen J (2001) Nature 413(6854):383-389; Mason, et al. (2004) Plant Physiol. 135(2):927-937).

The target in assay [1] is T2, ARR20 (type-B ARR subfamily-3) (Arabidopsis, UniProt Q9LZJ8 1-426, limits assumed).
T2 sequence (looked up): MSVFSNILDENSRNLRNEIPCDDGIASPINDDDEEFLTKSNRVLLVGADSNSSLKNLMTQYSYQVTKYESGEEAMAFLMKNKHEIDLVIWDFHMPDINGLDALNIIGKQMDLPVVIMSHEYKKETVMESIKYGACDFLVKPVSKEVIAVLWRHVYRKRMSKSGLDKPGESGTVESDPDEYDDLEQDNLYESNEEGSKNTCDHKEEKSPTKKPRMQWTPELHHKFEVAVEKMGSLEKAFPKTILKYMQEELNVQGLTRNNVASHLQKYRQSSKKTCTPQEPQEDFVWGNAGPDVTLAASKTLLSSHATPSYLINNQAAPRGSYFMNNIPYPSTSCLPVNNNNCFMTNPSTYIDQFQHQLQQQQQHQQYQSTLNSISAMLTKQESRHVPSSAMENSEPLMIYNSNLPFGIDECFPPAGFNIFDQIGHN
Excerpt: as §1, §2

A further assay has as its target T3, ARR10 (Arabidopsis, UniProt O49397 1-552, limits assumed).
T3 construct: also called type-B response regulator ARR10
T3 sequence (looked up): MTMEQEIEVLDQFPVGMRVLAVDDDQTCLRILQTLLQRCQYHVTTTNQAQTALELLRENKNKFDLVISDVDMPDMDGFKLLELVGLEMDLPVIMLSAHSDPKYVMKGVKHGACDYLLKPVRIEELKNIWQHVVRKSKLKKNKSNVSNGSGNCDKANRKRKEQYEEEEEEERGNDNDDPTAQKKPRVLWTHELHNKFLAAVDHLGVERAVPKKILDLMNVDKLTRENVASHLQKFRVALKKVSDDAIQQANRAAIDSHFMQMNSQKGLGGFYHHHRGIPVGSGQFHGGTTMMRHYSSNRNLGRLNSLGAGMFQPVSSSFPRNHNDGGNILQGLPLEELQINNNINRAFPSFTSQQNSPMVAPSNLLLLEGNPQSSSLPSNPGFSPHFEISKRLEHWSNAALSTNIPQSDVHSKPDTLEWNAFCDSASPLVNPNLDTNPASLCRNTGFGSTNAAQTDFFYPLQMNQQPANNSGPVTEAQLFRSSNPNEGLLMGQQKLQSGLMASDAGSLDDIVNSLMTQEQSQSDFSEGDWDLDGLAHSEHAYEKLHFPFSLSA
Excerpt: as §1, §2

For a further assay, the target named is T4, ARR2 (Arabidopsis, UniProt Q9ZWJ9 1-664, limits assumed).
T4 construct: also called type-B response regulator ARR2
T4 sequence (looked up): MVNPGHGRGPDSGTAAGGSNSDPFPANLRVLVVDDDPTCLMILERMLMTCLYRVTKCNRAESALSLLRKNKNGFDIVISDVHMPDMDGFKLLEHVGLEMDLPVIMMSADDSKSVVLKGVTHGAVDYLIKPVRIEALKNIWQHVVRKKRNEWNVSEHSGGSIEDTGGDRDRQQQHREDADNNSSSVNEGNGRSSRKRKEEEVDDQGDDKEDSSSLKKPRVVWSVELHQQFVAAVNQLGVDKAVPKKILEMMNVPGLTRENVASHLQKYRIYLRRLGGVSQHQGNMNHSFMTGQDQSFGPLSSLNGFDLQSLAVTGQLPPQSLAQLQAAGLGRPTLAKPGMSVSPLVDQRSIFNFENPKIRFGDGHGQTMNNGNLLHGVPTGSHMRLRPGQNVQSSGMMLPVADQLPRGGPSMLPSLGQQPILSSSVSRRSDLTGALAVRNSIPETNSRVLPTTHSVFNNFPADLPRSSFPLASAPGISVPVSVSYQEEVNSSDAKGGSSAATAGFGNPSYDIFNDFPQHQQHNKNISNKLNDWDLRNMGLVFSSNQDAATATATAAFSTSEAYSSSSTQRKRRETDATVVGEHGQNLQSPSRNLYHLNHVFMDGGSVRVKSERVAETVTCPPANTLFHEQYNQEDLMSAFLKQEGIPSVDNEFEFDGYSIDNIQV
Excerpt: as §1, §2

Another assay deals with T5, ARR21 (subfamily-3) (Arabidopsis, UniProt Q9LYP5 1-613, limits assumed).
T5 sequence (looked up): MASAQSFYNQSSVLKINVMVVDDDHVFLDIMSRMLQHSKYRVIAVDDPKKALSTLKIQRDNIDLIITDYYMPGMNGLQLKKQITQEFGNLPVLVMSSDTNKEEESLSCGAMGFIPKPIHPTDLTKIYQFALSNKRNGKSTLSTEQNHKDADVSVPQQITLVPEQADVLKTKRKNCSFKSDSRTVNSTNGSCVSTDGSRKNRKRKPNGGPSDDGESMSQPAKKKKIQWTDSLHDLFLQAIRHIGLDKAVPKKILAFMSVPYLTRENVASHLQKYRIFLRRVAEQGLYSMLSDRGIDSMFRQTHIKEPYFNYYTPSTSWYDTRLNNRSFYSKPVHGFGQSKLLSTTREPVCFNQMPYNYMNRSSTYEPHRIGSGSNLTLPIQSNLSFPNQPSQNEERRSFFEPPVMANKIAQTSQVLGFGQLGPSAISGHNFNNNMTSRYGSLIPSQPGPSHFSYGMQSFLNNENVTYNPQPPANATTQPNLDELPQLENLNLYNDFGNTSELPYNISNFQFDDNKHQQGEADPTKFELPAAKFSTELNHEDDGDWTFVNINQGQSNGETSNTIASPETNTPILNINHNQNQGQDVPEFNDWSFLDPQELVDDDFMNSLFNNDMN
Excerpt: as §1, §2

B1: KISS ME DEADLY 4 (KMD4) (other, Arabidopsis, UniProt Q9M1Y1 1-418, looked up)
chain: MGVSKKKSGEIRGDLIPGLPEELAIECLVRVPFQFHSSIKSVCRSWKCVISSRSFIKERIGFGKAESLLCLVQPLTSPPSPAMMEGGEMSQKKKEEEEGESQMTQQLLQPRITGTPLYGLSVYNATLDTWHRVAIPERIPLFCECVAIQDAGKVLLIGGWDPETLQPVRDVFVLDFFAGEGSGRRFRRGRPMSAARSFFACASVGSTKVYVAGGHDDQKNALRSAEVYDVEKDEWSMLPPMTEGRDECHGFSMATDPGFCVLSGYGTETQGQFRSDGEIYDPITNSWSTIENVWPFPDLSPRGRTAAAAAEFPGDFRGCRLWCFIDSERQSQPHWEVEDDSMKWKVIMDTIRLPVTTMTSVFAGSLSGQAVAMIGGGGEESGTMMVKTTAEKNGGKWSHVNTPSGFSSLPFSCSSIYV
notes: Full-length protein; LexA fusion in yeast two-hybrid, YFP^N or YFP^C fusion in BiFC; also called At3g59940
As for B1, the binding result was “binds” with ARR12; “binds” in assay [1]; “binds” with ARR10; “binds” with ARR2; “no binding” with ARR21 (subfamily-3).

B2: KISS ME DEADLY 3 (KMD3) (other, Arabidopsis, UniProt O80582 1-409, looked up)
chain: MTMEVSKKKGGDFQQCHELIPGLPSELALECLVRVPFQFQSAMRSVCRSWRSLLSDSSFIQERRRCGKTELLLCLVQPLTPPIPASKSVDETLMVDEKKSEDESHPRVFCTPRFGLSVYNAAMSTWHRVAFPEEEQIPLFCECVVLQDAGKILLIGGWDPETLQPTRDVYVLEFAGRKWRRGAPMKESRSFFACASVSPTKVYVAGGHDDQKNALRSAEVYDVEKDEWSSVTPMTEGRDECQGFAVGMGLRFCVLSGYGTESQGRFRSDGEIYDPATDSWSRIDNVWRFPDTSPRGRTAGDFRSSSTLWCFTDTDLQSERRWETNDDSRNLKLDLQSIQLPMTGSSVFAGSLGGESVVMIGGKRESEGEGEGGVMMKMTTEKKMGKWSHHVHIPCDFSTLPFSHASIYV
notes: Full-length protein; LexA fusion in yeast two-hybrid, YFP^N or YFP^C fusion in BiFC; also called At2g44130
In the case of B2, the binding result was “binds” with ARR12; “binds” in assay [1]; “binds” with ARR10; “binds” with ARR2; “no binding” with ARR21 (subfamily-3).

Source of the values: patent publication US20160289698A1 (TRUSTEES OF DARTMOUTH COLLEGE, published 2016).
